Experimental data reported in patent US8987424B2, “CA6 antigen-specific cytotoxic conjugate and methods of using the same” (ImmunoGen, Inc., priority 2003, dated 2015).

Legend:
[1] = tested on: Caov-3 cells; experiment: Flow cytometry binding assay; parameters: species or system human
Description: Flow cytometric analysis was used to localize the DS6 epitope, CA6, to the cell surface. Human cell lines were obtained from the American Type Culture Collection (ATCC) with the exception of OVCAR5 (Kearse et al., Int. J. Cancer 88(6):866-872 (2000)), OVCAR8 and IGROV1 cells (M. Seiden, Massachusetts General Hospital). All cells were grown in RPMI 1640 supplemented with 4 mM L-glutamine, 50 U/ml penicillin, 50 μg/ml streptomycin (Cambrex Bio Science, Rockland, Me.) and 10% v/v fetal bovine serum (Atlas Biologicals, Fort Collins, Colo.), referred hereafter as culture media. Cells were maintained in a 37° C., 5% CO2 humidified incubator.
Cells ([…]) were incubated, on ice for 3-4 h, with serially diluted concentrations of the DS6 antibody prepared in FACS buffer (2% goat serum, RPMI) into 96-well plates. […] After two washes, the cells were fixed with 1% formaldehyde and analyzed on a flow cytometer.
The muDS6 antibody (8 mg/ml) was modified using 8-fold molar excess of N-succinimidyl-4-(2-pyridyldithio) pentanoate (SPP) to introduce dithiopyridyl groups. […] The degree of modification was determined by measuring the absorbance of the antibody at 280 nm and the DTT released 2-mercaptopyridine (Spy) at 280 and 343 nm. […] The number of DM1 molecules linked per molecule of muDS6 was determined by measuring the absorbance at both 252 nm and 280 nm of the filtered material. […]

[2] = tested on: HPAC cells; experiment: Complement-dependent cytotoxicity (CDC) assay; assay type: cell-based; conditions: 5% human or rabbit serum
Description: (§1) To further test the inherent activity of naked muDS6, a complement-dependent cytotoxicity (CDC) assay using muDS6 was conducted. HPAC and ZR-75-1 cells (25000 cells/well) were plated in 96 well plates, in the presence of 5% human or rabbit serum and various dilutions of muDS6, in 200 μl of RHBP media (RPMI-1640, 0.1% BSA, 20 mM HEPES (pH 7.2-7.4), 100 U/ml penicillin and 100 ug/ml streptomycin). The cells were incubated for 2 h at 37° C. Then Alamar Blue (10% of final concentration) reagent (Biosource) was added to the supernatant. The cells were incubated for 5-24 hrs before measuring fluorescence.

[3] = tested on: ZR-75-1 cells; experiment: Complement-dependent cytotoxicity (CDC) assay; assay type: cell-based; conditions: 5% human or rabbit serum
Description: as §1

| Molecule | effect of conjugation on binding affinity ([1]; Caov-3 cells, versus unmodified muDS6) | MMF (average maximum relative mean fluorescence) ([1]; Caov-3) | CDC mediated effect ([2]; listed as Murine DS6) | CDC mediated effect ([2]; listed as muDS6) | CDC mediated effect ([3]; listed as Murine DS6) | CDC mediated effect ([3]; listed as muDS6) |
| --- | --- | --- | --- | --- | --- | --- |
| DS6-DM1: muDS6 antibody modified with SPP and conjugated to the maytansinoid DM1 (conjugate) VH: QAYLQQSGAELVRSGASVKMSCKASGYTFTSYNMHWVKQTPGQGLEWIGYIYPGNGATNYNQKFKGKATLTADPSSSTAYMQISSLTSEDSAVYFCARGDSVPFAYWGQGTLVTVSA VL: QIVLTQSPAIMSASPGEKVTITCSAHSSVSFMHWFQQKPGTSPKLWIYSTSSLASGVPARFGGSGSGTSYSLTISRMEAEDAATYYCQQRSSFPLTFGAGTKLELKR | only a slight loss of affinity | – | – | – | – | – |
| DS6: murine anti-CA6 monoclonal antibody DS6 (ATCC deposit number PTA-4449) (antibody, V domains shown) VH: QAYLQQSGAELVRSGASVKMSCKASGYTFTSYNMHWVKQTPGQGLEWIGYIYPGNGATNYNQKFKGKATLTADPSSSTAYMQISSLTSEDSAVYFCARGDSVPFAYWGQGTLVTVSA VL: QIVLTQSPAIMSASPGEKVTITCSAHSSVSFMHWFQQKPGTSPKLWIYSTSSLASGVPARFGGSGSGTSYSLTISRMEAEDAATYYCQQRSSFPLTFGAGTKLELKR | – | 465.20 | no effect | no CDC mediated effect | no effect | no CDC mediated effect |
